Results taken from IntAct's records for PubMed 19468302.

B1: Rac GTPase-activating protein 1 (Homo sapiens), Q9H0H5 (parent)
chain: MDTMMLNVRNLFEQLVRRVEILSEGNEVQFIQLAKDFEDFRKKWQRTDHELGKYKDLLMKAETERSALDVKLKHARNQVDVEIKRRQRAEADCEKLERQIQLIREMLMCDTSGSIQLSEEQKSALAFLNRGQPSSSNAGNKRLSTIDESGSILSDISFDKTDESLDWDSSLVKTFKLKKREKRRSTSRQFVDGPPGPVKKTRSIGSAVDQGNESIVAKTTVTVPNDGGPIEAVSTIETVPYWTRSRRKTGTLQPWNSDSTLNSRQLEPRTETDSVGTPQSNGGMRLHDFVSKTVIKPESCVPCGKRIKFGKLSLKCRDCRVVSHPECRDRCPLPCIPTLIGTPVKIGEGMLADFVSQTSPMIPSIVVHCVNEIEQRGLTETGLYRISGCDRTVKELKEKFLRVKTVPLLSKVDDIHAICSLLKDFLRNLKEPLLTFRLNRAFMEAAEITDEDNSIAAMYQAVGELPQANRDTLAFLMIHLQRVAQSPHTKMDVANLAKVFGPTIVAHAVPNPDPVTMLQDIKRQPKVVERLLSLPLEYWSQFMMVEQENIDPLHVIENSNAFSTPQTPDIKVSLLGPVTTPEHQLLKTPSSSSLSQRVRSTLTKNTPRFGSKSKSATNLGRQGNFFASPMLK
B2: Rac GTPase-activating protein 1 (Homo sapiens), Q9H0H5 (parent)
chain: B1 chain
partner: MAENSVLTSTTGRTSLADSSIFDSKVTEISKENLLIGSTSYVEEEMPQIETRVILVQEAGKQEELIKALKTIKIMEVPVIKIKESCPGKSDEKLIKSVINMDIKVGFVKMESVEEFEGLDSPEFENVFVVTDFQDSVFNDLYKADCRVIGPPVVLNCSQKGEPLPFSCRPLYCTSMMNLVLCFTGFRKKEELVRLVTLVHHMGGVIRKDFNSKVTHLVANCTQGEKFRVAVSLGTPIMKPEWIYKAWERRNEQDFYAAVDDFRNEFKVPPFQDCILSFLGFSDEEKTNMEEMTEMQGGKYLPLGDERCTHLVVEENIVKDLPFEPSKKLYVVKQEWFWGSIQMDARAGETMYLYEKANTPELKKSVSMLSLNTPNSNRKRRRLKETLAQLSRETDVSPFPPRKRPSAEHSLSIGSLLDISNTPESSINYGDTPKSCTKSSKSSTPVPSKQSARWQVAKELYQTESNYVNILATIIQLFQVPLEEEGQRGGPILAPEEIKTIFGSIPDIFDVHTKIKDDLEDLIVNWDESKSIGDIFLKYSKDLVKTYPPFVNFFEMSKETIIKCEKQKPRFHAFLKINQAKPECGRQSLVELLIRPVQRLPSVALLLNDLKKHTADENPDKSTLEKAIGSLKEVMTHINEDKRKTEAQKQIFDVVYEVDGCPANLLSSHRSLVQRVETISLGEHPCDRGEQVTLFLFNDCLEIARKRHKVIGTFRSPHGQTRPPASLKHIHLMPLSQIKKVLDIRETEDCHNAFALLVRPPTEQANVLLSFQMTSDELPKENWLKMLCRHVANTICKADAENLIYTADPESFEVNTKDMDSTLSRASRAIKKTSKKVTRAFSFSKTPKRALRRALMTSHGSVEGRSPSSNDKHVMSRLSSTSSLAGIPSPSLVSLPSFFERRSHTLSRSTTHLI

Variants of: B1
Details: with plk1_human PLK1, P53350
Chain of plk1_human PLK1, P53350 (P53350 whole entry): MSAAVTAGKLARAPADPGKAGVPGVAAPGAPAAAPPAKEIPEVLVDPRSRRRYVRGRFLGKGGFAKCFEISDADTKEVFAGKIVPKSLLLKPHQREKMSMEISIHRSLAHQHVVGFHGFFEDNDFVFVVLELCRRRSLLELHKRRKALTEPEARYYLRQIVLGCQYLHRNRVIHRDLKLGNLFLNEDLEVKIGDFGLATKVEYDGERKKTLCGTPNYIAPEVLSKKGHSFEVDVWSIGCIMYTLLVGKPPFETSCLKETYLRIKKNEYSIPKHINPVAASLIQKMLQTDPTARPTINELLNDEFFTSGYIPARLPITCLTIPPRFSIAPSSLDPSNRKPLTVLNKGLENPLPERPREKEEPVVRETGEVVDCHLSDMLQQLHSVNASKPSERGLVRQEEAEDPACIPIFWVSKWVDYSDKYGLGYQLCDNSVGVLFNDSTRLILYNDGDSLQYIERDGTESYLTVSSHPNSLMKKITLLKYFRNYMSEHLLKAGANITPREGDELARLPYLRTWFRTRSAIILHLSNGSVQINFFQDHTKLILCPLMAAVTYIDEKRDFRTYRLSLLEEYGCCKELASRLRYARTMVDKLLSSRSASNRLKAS

Variant | effect of a mutation on the interaction
S157A;S164A;S170A;S214A;T260A | decreasing interaction strength

Variants of: B2
Details: with ect2_human ECT2, Q9H8V3

Variant | effect of a mutation on the interaction
S157A | decreasing interaction
S157A;S164A;S170A;S214A;T260A | decreasing interaction strength
S157A;S164A;S170A | disrupting interaction
